Values belong to the binder of their own block, whether it stands above or below them.
Experiments:
[1] = molecular target: T1, Recombinant purified TRBC2 (human, UniProt A0A5B9 1-129, limits assumed); experiment: SPR, biotinylated TRBC captured on CAP chip, antibody injected; t1/2=ln 2/kd
T1 construct: Construct not described (may be a soluble TCR carrying TRBC2); also called TCR beta constant region 2; soluble recombinant biotinylated TRBC2
Method: (§1) To test multivalent interaction of scFv-Fc and scFv-COMP antibody formats, a series S CAP chip was immobilised with Biotin capture reagent to 2500-5000 RU. Soluble recombinant biotinylated TRBC1 and TRBC2 were captured on flow cells 3, in independent experimental cycles, to a density of 90-110 RU. Purified anti-TRBC2 scFv-Fc or scFv-COMP antibodies were injected over the flow cell with 150s contact time and 300s dissociation at 30 μl/minute of flow rate. On flow cell 1, biotinylated protein was omitted and used for reference subtraction. A ‘0 concentration’ sensorgram of buffer alone was used as a double reference subtraction to factor for drift. Data were fit to a 1:1 Langmuir binding model. Since a capture system was used, a local Rmax parameter was used for the data fitting in each case. Off-rate value was determined, and half-life calculated according to: t1/2=ln 2/kd.

[2] = molecular target: T1, Recombinant purified TRBC2; experiment: SPR (Biacore T200), biotinylated TRBC2 captured on a CAP chip, scFv-COMP injected; half-life of dissociation, t1/2 = ln 2/kd [cont.) C]
Method: as §1

[3] = molecular target: T1, Recombinant purified TRBC2; experiment: SPR, 1:1 interaction, antibody captured, TRBC as analyte; t1/2=ln 2/kd
Excerpt: (§2) To test 1:1 binding interaction of the anti-TRBC2 scFv, a series S CM5 sensor chip was immobilised via amine coupling, with an anti-human Fc capture antibody to a density of 9000-10000 RU, using a Biacore T200 instrument. HBS-P+ buffer was used as running buffer in all experimental conditions. The test anti-TRBC2 antibody was captured on flow 4 to a density of 200-250 RU. Recombinant purified TRBC1 or TRBC2 at known concentrations were used as the ‘analyte’ and injected over the respective flow cells with 150s contact time and 300s dissociation at 30 μl/minute of flow rate. Flow cell 1 was unmodified and used for reference subtraction. A ‘0 concentration’ sensorgram of buffer alone was used as a double reference subtraction to factor for drift. Data were fit to a 1:1 Langmuir binding model. Since a capture system was used, a local Rₘₐₓ parameter was used for the data fitting in each case. Off-rate value was determined, and half-life calculated according to: t1/2=ln 2/kd.

[4] = molecular target: T1, Recombinant purified TRBC2; experiment: SPR (Biacore T200), captured anti-TRBC2 binder, recombinant TRBC2 as analyte; half-life of dissociation, t1/2 = ln 2/kd
Excerpt: as §2

T1 sequence (A0A5B9 1-129 limits assumed): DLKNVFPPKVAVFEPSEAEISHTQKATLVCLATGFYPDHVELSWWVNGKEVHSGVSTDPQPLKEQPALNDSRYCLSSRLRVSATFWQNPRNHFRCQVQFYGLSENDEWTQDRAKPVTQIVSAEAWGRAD

half-life [1]: 7.3 min | t1/2 [2]: 7.26 min
B1: anti-TRBC2 scFv-COMP (T28K, Y32F, A100N, Y102L, N103M in VH; N35R in VL of hJovi-1) (other)
chain: QVQLVQSGAEVKKPGASVKVSCKASGYKFTGFVMHWVRQAPGQGLEWMGFINPYNDDIQSNERFRGRVTMTRDTSISTAYMELSRLRSDDTAVYYCARGNGLMFDGAYRFFDFWGQGTMVTVSSGGGGSGGGGSGGGGSDIVMTQSPLSLPVTPGEPASISCRSSQRLVHSNGRTYLHWYLQKPGQSPRLLIYRVSNRFPGVPDRFSGSGSGTDFTLKISRVEAEDVGVYYCSQSTHVPYTFGQGTKLEIKRSGGGGSGGGGSGGGGSAGSDLGPQMLRELQETNAALQDVRELLRQQVREITFLKNTVMECDACGSGKKDPKSGGGGSYPYDVPDYA
notes: scFv fused to the COMP coiled-coil

half-life [3]: 0.133 min | t1/2 [4]: 0.138 min
B2: anti-TRBC2 scFv (T28K, Y32F, A100N, Y102L, N103M in VH; N35R in VL of hJovi-1) (scFv)
scFv: QVQLVQSGAEVKKPGASVKVSCKASGYKFTGFVMHWVRQAPGQGLEWMGFINPYNDDIQSNERFRGRVTMTRDTSISTAYMELSRLRSDDTAVYYCARGNGLMFDGAYRFFDFWGQGTMVTVSSGGGGSGGGGSGGGGSDIVMTQSPLSLPVTPGEPASISCRSSQRLVHSNGRTYLHWYLQKPGQSPRLLIYRVSNRFPGVPDRFSGSGSGTDFTLKISRVEAEDVGVYYCSQSTHVPYTFGQGTKLEIKR
notes: the format in the assay is unsure

From US20220041718A1 (AUTOLUS, published 2022)
